# Experimental data as given in patent publication US7090843B1, “Recombinant anti-CD30 antibodies and uses thereof” (Seattle Genetics, Inc., priority 2000, dated 2006).
# Like-named read-outs stand apart in the source and are kept apart here.
# Legend:
# [1] = test system: HD cell line L428; experiment: Chemotherapeutic drugs on L428 cells pre-cultured with or without cross-linked AC10 (3H-thymidine); format: cell-based
# Protocol: L428 cells were cultured for 24 hours in the presence or absence of 0.1 μg/ml anti-CD30 antibody, AC10, crosslinked by the addition of 20 μg/ml goat anti-mouse IgG antibodies. After the 24-hour culture period, the cells were harvested and washed with phosphate buffered saline (PBS). The cells were then plated into 96-well flat-bottom tissue culture plates at 5×10^3 cells/well and mixed with various dilutions of chemotherapeutic drugs. After a 1-hour exposure to the drugs the cells were washed twice, followed by the addition of fresh culture media. The plates were then incubated at 37° C. for 72 hours followed by a 4-hour incubation with 0.5 μCi/well ^3H-thymidine. The inhibition of growth was determined by comparing the amount of ^3H-thymidine incorporated into treated cells to the amount incorporated into untreated control cells.
# To evaluate the effect of the anti-CD30 mAb in combination with chemotherapeutic drugs, L428 cells were incubated for 24 hours in either the absence of antibody or the presence of AC10 at 0.1 μg/ml with 20 μg/ml goat anti-mouse IgG to provide crosslinking for the primary antibody. After this incubation the cells were plated into 96-well tissue culture plates at 5×10^3 cells/well in the presence of dilutions of chemotherapeutic drugs including doxorubicin, cisplatin, and etoposide (Table 3). The EC50, concentration of drug needed to inhibit the incorporation of ^3H-thymidine by 50% compared to untreated control cells, was then determined for cells treated with the drugs alone or the combinations of drug and antibody.
# [2] = test system: HDLM-2; experiment: Proliferation assay (3H-thymidine incorporation), immobilized or cross-linked anti-CD30 mAbs; format: cell-based
# Protocol: (§1) Proliferation assays: CD30 expressing cell lines were cultured in flat-bottom 96-well plates at a density of 50,000 or 5,000 cells/well in growth media (RPMI with 10% fetal bovine serum (FBS) for cell lines L428, KM-H2 and Karpas 299, and RPMI/20% FBS for cell lines HDLM-2 and L540. The cell lines were cultured in the absence or presence of cross-linked soluble anti-CD30 mAbs or immobilized anti-CD30 mAbs, as described below.
# (§2) Antibody cross-linking in solution: To cross-link the anti-CD30 antibodies in solution, various dilutions of AC10 or HeFi-1 were titrated into 96-well flat bottom tissue culture plates in the absence or presence of 20 μg/ml polyclonal goat anti-mouse IgG antibodies. Hodgkin's disease cell lines were then added to the plates at either 50,000 or 5,000 cells/well. The plates were incubated at 37° C. for 72 hours and were labeled with ^3H-thymidine, 1 μCi/well, for the final 5 hours.
# (§3) Antibody immobilization: Antibody immobilization was obtained by coating wells with antibody in 50 mmol/L Tris buffer (pH 8.5) for 18 hours at 4° C. Prior to the addition of cells, wells were washed twice with PBS to remove unbound mAb. 50,000 or 5,000 cells in a total volume of 200 μl were added to each well. Proliferation was determined by uptake of ^3H-thymidine (0.5 μCi/well) during the final 8 hours of a 72 hour culture period.
# [3] = test system: KM-H2; experiment: as above; format: cell-based
# Protocol: as §1, §2, §3
# [4] = test system: L428; experiment: as above; format: cell-based
# Protocol: as §1, §2, §3
# [5] = test system: L540; experiment: as above; format: cell-based
# Protocol: as §1, §2, §3
# [6] = test system: L540cy Hodgkin's disease xenografts; experiment: Disseminated L540cy Hodgkin's disease xenograft; format: in vivo, SCID mice; conditions: 1 mg/kg/injection i.p. q2d×10 from d1 (FIG. 5A)
# Protocol: (§4) Human tumor xenograft models: Female C.B-17 SCID mice, obtained from Taconic (Germantown, N.Y.) at 4–6 weeks of age, were used for all efficacy studies. To establish xenograft models of Hodgkin's disease, L540cy (HD) cells were harvested from cell culture, washed in ice cold phosphate buffered saline (PBS), resuspended in PBS, and maintained on ice until implantation. For disseminated disease models, mice were injected intravenously through the tail vein with 10^7 L540cy cells. Solid tumor xenografts were established by injecting mice subcutaneously (s.c.) with 2×10^7 L540cy cells. For therapeutic evaluation the indicated treatment doses and schedules were used.
# Administration of AC10 and HeFi-1: Disseminated L540cy tumor bearing mice received 10^7 cells through the tail vein on d0 followed by therapy initiated on d1. Treated mice received i.p. injections of either AC10 or HeFi-1 every two days for a total of 10 injections, q2d×10, at 1 mg/kg/injection.
# [7] = test system: L540cy Hodgkin's disease xenografts; experiment: Subcutaneous L540cy Hodgkin's disease xenograft; format: in vivo, SCID mice; conditions: tumors >150 mm^3 at start, 2 mg/kg twice per week, five injections (FIG. 6)
# Protocol: as §4
# For the subcutaneous L540cy model, mice were injected s.c. with 2×10^7 cells and were observed daily for solid tumor formation. When tumors were palpable, the animals were randomly distributed into groups and received either AC10 or HeFi-1 q2d×10 at 2 mg/kg/injection.
# To evaluate the efficacy of cAC10 in vivo, SCID mice were implanted subcutaneously with L540cy cells as described above. When the tumors reached an average size of greater than 150 mm^3 the mice were divided into groups that were either untreated or treated with 2 mg/kg cAC 10 twice per week for a total of five injections. The tumors in the untreated mice rapidly grew to an average size of greater than 600 mm^3 (FIG. 6).
# [8] = test system: L540 cells; experiment: Co-cultivation of L540 cells with antibodies, isolation of sCD30 from culture supernatant; format: cell-based; conditions: L540 cells co-cultivated with antibody
# Text: At the Fourth Workshop on Leukocyte Differentiation Antigens in Vienna in February 1989, monoclonal antibodies were submitted by three different laboratories and finally characterized as belonging to the CD30 group. […] However, the antibody Ber-H2 also labels a subpopulation of plasma cells (Schwarting et al., 1988, Blood 74:1678–1689) and G. Pallesen (G. Pallesen, 1990, Histopathology 16:409–413) describes, on page 411, that Ber-H2 is cross-reacting with an epitope of an unrelated antigen which is altered by formaldehyde.
# [9] = test system: L428; conditions: co-culture with mAb; cited from earlier work
# [10] = test system: L540; conditions: co-culture with mAb; cited from earlier work
# [11] = test system: ALCL tumor xenografts; conditions: Tian et al., 1995; cited from earlier work
# [12] = Homo sapiens, L-428, L428, combination of drug and AC10 0.1 μg/ml cross-linked, read-out: EC50 (after incubation with AC10)
# [13] = Homo sapiens, L-428, L428, drug alone, read-out: EC50 (drug alone)
# [14] = Homo sapiens, L-428, L428, 24 hours with 0.1 μg/ml AC10 cross-linked with 20 μg/ml goat anti-mouse IgG, then 1-hour drug exposure, 72 hours, read-out: EC50, nM with AC10
# [15] = Homo sapiens, L-428, L428, no antibody, 1-hour drug exposure, 72 hours, read-out: EC50, nM without AC10
# [16] = immobilized mAb 10 μg/ml, 5,000 cells/well, 72 hours (FIG. 2)
# [17] = immobilized mAb 10 μg/ml, 50,000 cells/well, 72 hours (FIG. 1)
# [18] = soluble mAb 0.1 μg/ml cross-linked with 20 μg/ml goat anti-mouse IgG, 5×10^4 cell/well, 72 hours (FIG. 3)
# [19] = soluble mAb cross-linked with 20 μg/ml goat anti-mouse IgG, 5×10^3 cell/well, 72 hours (FIG. 4)
Molecule,"EC50 [1, 12] [nM]","EC50 [1, 13] [nM]","EC50 [1, 14] [nM]","EC50 [1, 15] [nM]","cell growth (3H-thymidine incorporation) [2, 18]","cell growth (3H-thymidine incorporation) [2, 19]","cell growth (3H-thymidine incorporation) [3, 18]","cell growth (3H-thymidine incorporation) [4, 18]","cell growth (3H-thymidine incorporation) [4, 19]","cell growth (3H-thymidine incorporation) [5, 18]","cell growth (3H-thymidine incorporation) [5, 19]",signs of disease [6],other results
N.N.[Cl][Pt][Cl] [Cisplatin],–,–,–,–,–,–,–,–,–,–,–,–,"EC50 ([1]; L428, combination of drug and AC10 0.1 μg/ml cross-linked, read-out: EC50 (after incubation with AC10)): ~500 nM; EC50 ([1]; L428, drug alone, read-out: EC50 (drug alone)): ~1500 nM; EC50 ([1]; L428, 24 hours with 0.1 μg/ml AC10 cross-linked with 20 μg/ml goat anti-mouse IgG, then 1-hour drug exposure, 72 hours, read-out: EC50, nM with AC10): 1500 nM; EC50 ([1]; L428, no antibody, 1-hour drug exposure, 72 hours, read-out: EC50, nM without AC10): 500 nM"
COc1cccc2c1C(=O)c1c(O)c3c(c(O)c1C2=O)C[C@@](O)(C(=O)CO)C[C@@H]3O[C@H]1C[C@H](N)[C@H](O)[C@H](C)O1 [Doxorubicin],~9,~45,45,9,–,–,–,–,–,–,–,–,–
COc1cc([C@@H]2c3cc4c(cc3[C@@H](O[C@@H]3O[C@@H]5CO[C@@H](C)O[C@H]5[C@H](O)[C@H]3O)[C@H]3COC(=O)[C@H]23)OCO4)cc(OC)c1O [Etoposide],~600,~1500,1500,600,–,–,–,–,–,–,–,–,–
"AC10: murine anti-CD30 monoclonal antibody prepared against human NK-like cell line YT; hybridoma deposit ATCC PTA-6679 (antibody, listed as Mus musculus, V domains shown) VH: QIQLQQSGPEVVKPGASVKISCKASGYTFTDYYITWVKQKPGQGLEWIGWIYPGSGNTKYNEKFKGKATLTVDTSSSTAFMQLSSLTSEDTAVYFCANYGNYWFAYWGQGTQVTVSA VL: DIVLTQSPASLAVSLGQRATISCKASQSVDFDGDSYMNWYQQKPGQPPKVLIYAASNLESGIPARFSGSGSGTDFTLNIHPVEEEDAATYYCQQSNEDPWTFGGGTKLEIK",–,–,–,–,growth inhibited,growth inhibited,growth inhibited,growth inhibited,growth inhibited,growth inhibited,growth inhibited,no signs of disease,"cell growth (3H-thymidine incorporation) [2, 16]: growth inhibition; cell growth (3H-thymidine incorporation) [2, 17]: inhibition of cell growth; cell growth (3H-thymidine incorporation) [3, 16]: growth inhibition; cell growth (3H-thymidine incorporation) [3, 17]: inhibition of cell growth; cell growth (3H-thymidine incorporation) ([3]; soluble mAb 0.11 g/ml cross-linked with 20 μg/ml goat anti-mouse IgG, 5×10^3 cell/well, 72 hours (FIG. 4)): growth inhibited; cell growth (3H-thymidine incorporation) [4, 16]: growth inhibition; cell growth (3H-thymidine incorporation) [4, 17]: inhibition of cell growth; cell growth (3H-thymidine incorporation) [5, 16]: growth inhibition; cell growth (3H-thymidine incorporation) [5, 17]: inhibition of cell growth"
"cAC10: chimeric antibody: AC10 heavy and light chain variable regions with human gamma 1 and kappa constant regions (antibody, left off: a dimerising Fc or GST, chimeric antibody: AC10 heavy and light chain variable regions with human gamma 1 and kappa constant regions) heavy: QIQLQQSGPEVVKPGASVKISCKASGYTFTDYYITWVKQKPGQGLEWIGWIYPGSGNTKYNEKFKGKATLTVDTSSSTAFMQLSSLTSEDTAVYFCANYGNYWFAYWGQGTQVTVSA light: DIVLTQSPASLAVSLGQRATISCKASQSVDFDGDSYMNWYQQKPGQPPKVLIYAASNLESGIPARFSGSGSGTDFTLNIHPVEEEDAATYYCQQSNEDPWTFGGGTKLEIK",–,–,–,–,–,–,–,–,–,–,–,–,average tumor size [7]: remained about the same size
"HeFi-1: anti-CD30 mAb produced by immunizing mice with the L428 Hodgkin's disease cell line (antibody, V domains shown) VH: EVKLVESGGGLVQPGGSLRLSCATSGFTFSDYYMNWVRQPPGKALEWLGFIRNKANGYTTEFSASVMGRFTISRDDSQSILYLQMNTLRAEDSATYYCARDPPYGNPHYYAMDYWGQGTSVTVSS VL: DIVLTQSPASLAVSLGQRATISCRASKSVSASGYNYMHWYQQKAGQPPKLLIHLASNLESGVPARFSGSGSGTDFTLNIHPVEEEDASTYYCQHSGELPFTFGSGTKLEIK",–,–,–,–,growth inhibited,growth inhibited,growth inhibited,growth inhibited,growth inhibited,growth inhibited,growth inhibited,no signs of disease,release of the sCD30 [8]: weakly enhanced; viability of the cell line on co-culture [9]: failed to reveal any direct effect; viability of the cell line on co-culture [10]: failed to reveal any direct effect; survival of SCID mice bearing ALCL tumor xenografts [11]: prolonged survival
